According to PMC7809202, “Identification of fidelity-governing factors in human recombinases DMC1 and RAD51 from cryo-EM structures” (Nature Communications, 2021):
Numbering of substitutions follows the chain as printed. Numbers in names are those of the source.

Legend:
human RAD51 = target: T1, human RAD51 (Homo sapiens, UniProt Q06609, V273P/D274G); assay: cryo-EM structure of filament; conditions: 2 mM AMP-PNP, 5 mM CaCl2, pH 7.5, 37 °C; homologous dsDNA filament; ATP-binding site
T1 construct: untagged as described, human cDNA in pET11, E. coli BLR pRARE host; helical filament on dsDNA
T1 sequence (Q06609 2-339 V273P/D274G): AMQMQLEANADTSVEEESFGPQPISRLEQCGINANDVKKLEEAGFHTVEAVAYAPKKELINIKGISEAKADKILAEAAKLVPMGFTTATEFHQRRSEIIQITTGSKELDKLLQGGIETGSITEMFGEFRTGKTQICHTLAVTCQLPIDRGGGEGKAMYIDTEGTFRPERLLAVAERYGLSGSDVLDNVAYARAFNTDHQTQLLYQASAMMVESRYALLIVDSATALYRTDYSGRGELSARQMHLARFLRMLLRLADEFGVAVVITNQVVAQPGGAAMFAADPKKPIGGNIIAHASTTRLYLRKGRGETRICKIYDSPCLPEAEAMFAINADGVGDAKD

DMC1 WT [1] = target: T2, DMC1 WT (Homo sapiens, UniProt Q14565 1-340); assay: cryo-EM structure; EMSA: 35 mM Tris-HCl pH 7.5, 1 mM DTT, 10 mM MgCl2, 100 ng/ul BSA, 50 mM KCl, 2 mM ATP, 37 °C 10 min; DNA 3 uM nucleotides or base pairs; conditions: protein: recombinant, tags: His6, blunt
T2 sequence: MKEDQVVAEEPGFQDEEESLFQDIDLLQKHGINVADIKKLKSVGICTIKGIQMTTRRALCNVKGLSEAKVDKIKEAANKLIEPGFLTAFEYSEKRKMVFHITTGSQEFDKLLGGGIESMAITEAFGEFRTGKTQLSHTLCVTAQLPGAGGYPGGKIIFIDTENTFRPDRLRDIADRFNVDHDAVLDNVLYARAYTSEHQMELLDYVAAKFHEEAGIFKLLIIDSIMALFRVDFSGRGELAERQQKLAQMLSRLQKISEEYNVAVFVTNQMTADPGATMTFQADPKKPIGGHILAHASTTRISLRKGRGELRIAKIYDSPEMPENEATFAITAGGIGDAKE

DMC1-Q244M (Qm) = target: T3, DMC1-Q244M (Qm) (Homo sapiens, UniProt Q14565 1-340, Q244M); assay: cryo-EM structure; DNA too flexible to be observed; EMSA: 35 mM Tris-HCl pH 7.5, 1 mM DTT, 10 mM MgCl2, 100 ng/ul BSA, 50 mM KCl, 2 mM ATP, 37 °C 10 min; DNA 3 uM nucleotides or base pairs; conditions: protein: recombinant; tags: His6; blunt
T3 sequence: T2 sequence with Q244M

[2] = target: the molecule itself; assay: cryo-EM structure; helical filaments: 4 uM DMC1 (or RAD51) protein with 24 uM nucleotides of ssDNA (presynaptic) or dsDNA (postsynaptic) in 35 mM Tris-HCl pH 7.5, 108 mM KCl, 1 mM DTT, 2 mM AMP-PNP, 5 mM CaCl2, 37 °C, 30 min; helical reconstruction; protomer to protomer within a nucleoprotein filament
DMC1-QmPvGd = target: T4, DMC1-QmPvGd (Homo sapiens, UniProt Q14565 1-340, Q244M;P274V;G275D); assay: EMSA; 2 mM ATP, 10 mM Mg2+; EMSA: 35 mM Tris-HCl pH 7.5, 1 mM DTT, 10 mM MgCl2, 100 ng/ul BSA, 50 mM KCl, 2 mM ATP, 37 °C 10 min; DNA 3 uM nucleotides or base pairs; conditions: protein: recombinant, tags: His6
T4 sequence: T2 sequence with Q244M, P274V, G275D

DMC1-PvGd = target: T5, DMC1-PvGd (Homo sapiens, UniProt Q14565 1-340, P274V;G275D); assay: as above; conditions: protein: recombinant, tags: His6
T5 sequence: T2 sequence with P274V, G275D

DMC1 WT [3] = target: T2, DMC1 WT; assay: cryo-EM structure; AMP-PNP; EMSA: 35 mM Tris-HCl pH 7.5, 1 mM DTT, 10 mM MgCl2, 100 ng/ul BSA, 50 mM KCl, 2 mM ATP, 37 °C 10 min; DNA 3 uM nucleotides or base pairs; conditions: protein: recombinant; tags: His6; single strand
[4] = label: 5'-32P (EMSA), single strand
[5] = label: 5'-32P on Oligo 1, blunt

Nc1ncnc2c1ncn2[C@@H]1O[C@H](COP(=O)(O)OP(=O)(O)NP(=O)(O)O)[C@@H](O)[C@H]1O [AMP-PNP]
cryo-EM structure of filament (human RAD51): solved the structure of the dsDNA filaments of the double mutant RAD51-VpDg

B1: Oligo 3/Oligo 4 15 bp homologous dsDNA (dsDNA)
DNA 1: ACGGGCAACAGCTGA
DNA 2: TCAGCTGTTGCCCGT
binding result (DMC1 WT [1]): binds | binding result (DMC1-Q244M (Qm)): binds

B2: human RAD51-V273P/D274G (natural protein)
chain: MAMQMQLEANADTSVEEESFGPQPISRLEQCGINANDVKKLEEAGFHTVEAVAYAPKKELINIKGISEAKADKILAEAAKLVPMGFTTATEFHQRRSEIIQITTGSKELDKLLQGGIETGSITEMFGEFRTGKTQICHTLAVTCQLPIDRGGGEGKAMYIDTEGTFRPERLLAVAERYGLSGSDVLDNVAYARAFNTDHQTQLLYQASAMMVESRYALLIVDSATALYRTDYSGRGELSARQMHLARFLRMLLRLADEFGVAVVITNQVVAQPGGAAMFAADPKKPIGGNIIAHASTTRLYLRKGRGETRICKIYDSPCLPEAEAMFAINADGVGDAKD
notes: RAD51, human; site-directed mutant of the RAD51 cDNA in vector pET11; Protomer of a helical filament assembled on dsDNA with AMP-PNP and Ca2+; also called RAD51-VpDg; RAD51-V273P, D274G mutant
binding result [2]: binds

B3: Oligo 1 80-mer ssDNA (ssDNA)
DNA: TTATGTTCATTTTTTATATCCTTTACTTTATTTTCTCTGTTTATTCATTTACTTATTTTGTATTATCCTTATCTTATTTA
binding signal (DMC1-QmPvGd; [4]): ~40 % of WT binding (approx. 60% lost) | binding signal (DMC1-PvGd; [4]): ~60 % of WT binding (approx. 40% lost)

B4: Oligo 1 80-mer ssDNA, unlabeled (ssDNA)
DNA: B3 DNA
binding result (DMC1 WT [3]): binds

B5: Oligo 1/Oligo 2 80 bp dsDNA (dsDNA)
DNA 1: B3 DNA
DNA 2: TAAATAAGATAAGGATAATACAAAATAAGTAAATGAATAAACAGAGAAAATAAAGTAAAGGATATAAAAAATGAACATAA
binding signal (DMC1-QmPvGd; [5]): ~40 % of WT binding (approx. 60% lost) | binding signal (DMC1-PvGd; [5]): ~60 % of WT binding (approx. 40% lost)

B6: Oligo 3/Oligo 5 15 bp mismatched dsDNA (dsDNA)
DNA 1: ACGGGCAACAGCTGA
DNA 2: TCAGCTGTCGCCCGT
binding result (DMC1 WT [1]; one A-C mismatch): binds

B7: human DMC1 (wild type) (natural protein)
chain: T2 sequence
notes: DMC1, human; cDNA in vector pRSFDuet; Protomer of a helical filament assembled on ssDNA or dsDNA with AMP-PNP and Ca2+; also called DMC1-WT; WT DMC1; source: E. coli RecA-deficient BLR strain with pRARE, purified (TALON, Source Q, macrohydroxyapatite, Mono Q)
binding result [2]: binds

B8: human DMC1-Q244M (natural protein)
chain: T2 sequence with Q244M
notes: DMC1, human; site-directed mutant of the DMC1 cDNA in pRSFDuet; Protomer of a helical filament assembled with homologous dsDNA, AMP-PNP and Ca2+; the DNA density was not observable in the map; also called DMC1-Qm; source: E. coli BLR pRARE, purified as described for the WT protein
binding result [2]: binds
